Legend:
TRβ/RXRα heterodimer = biological target: T1, TRβ/RXRα heterodimer (Homo sapiens (TRβ) / Rattus norvegicus …, UniProt P10828;Q05343 P10828:1-461,Q05343:1-467); test: EMSA; oligomeric complex with GST-RAP250; settings: tags: pCMVhTRβ and pBKCMVrRXRα, rabbit reticulocyte lysate TNT; label: 32P (dCTP)
T1 sequence 1: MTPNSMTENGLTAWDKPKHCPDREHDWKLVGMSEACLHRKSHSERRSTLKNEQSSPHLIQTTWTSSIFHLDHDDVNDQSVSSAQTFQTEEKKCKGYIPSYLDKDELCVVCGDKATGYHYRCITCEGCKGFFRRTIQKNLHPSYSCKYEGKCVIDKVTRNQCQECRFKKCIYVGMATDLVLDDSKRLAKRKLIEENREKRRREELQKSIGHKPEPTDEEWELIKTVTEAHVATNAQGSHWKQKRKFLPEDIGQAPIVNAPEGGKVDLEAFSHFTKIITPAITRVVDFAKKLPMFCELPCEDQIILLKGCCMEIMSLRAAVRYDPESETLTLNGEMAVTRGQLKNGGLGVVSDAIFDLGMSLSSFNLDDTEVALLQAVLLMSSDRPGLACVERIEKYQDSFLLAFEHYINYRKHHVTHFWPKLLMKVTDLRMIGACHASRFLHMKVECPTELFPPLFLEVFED
T1 sequence 2: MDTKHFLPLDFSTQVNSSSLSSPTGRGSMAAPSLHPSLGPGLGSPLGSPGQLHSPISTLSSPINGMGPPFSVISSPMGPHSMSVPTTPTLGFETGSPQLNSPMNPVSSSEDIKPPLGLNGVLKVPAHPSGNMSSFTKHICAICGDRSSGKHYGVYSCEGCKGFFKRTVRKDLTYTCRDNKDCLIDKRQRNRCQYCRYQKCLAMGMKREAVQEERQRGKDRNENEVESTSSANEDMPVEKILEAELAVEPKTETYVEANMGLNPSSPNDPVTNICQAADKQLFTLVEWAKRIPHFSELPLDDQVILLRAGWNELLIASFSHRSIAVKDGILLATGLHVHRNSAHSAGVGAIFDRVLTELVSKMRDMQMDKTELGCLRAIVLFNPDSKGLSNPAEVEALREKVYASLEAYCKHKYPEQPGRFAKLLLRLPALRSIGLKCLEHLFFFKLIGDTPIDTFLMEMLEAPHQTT

TRα/RXRα heterodimer = biological target: T2, TRα/RXRα heterodimer (Homo sapiens (TRα) / Rattus norvegicus …, UniProt P10827-2;Q05343 P10827-2:1-410,Q05343:1-467); test: EMSA; with and without T3 / 9-cis RA; GST alone does not interact with the complex; on ice; settings: tags: pCMVhTRα and pBKCMVrRXRα, rabbit reticulocyte lysate TNT; label: 32P (dCTP)
T2 sequence 1: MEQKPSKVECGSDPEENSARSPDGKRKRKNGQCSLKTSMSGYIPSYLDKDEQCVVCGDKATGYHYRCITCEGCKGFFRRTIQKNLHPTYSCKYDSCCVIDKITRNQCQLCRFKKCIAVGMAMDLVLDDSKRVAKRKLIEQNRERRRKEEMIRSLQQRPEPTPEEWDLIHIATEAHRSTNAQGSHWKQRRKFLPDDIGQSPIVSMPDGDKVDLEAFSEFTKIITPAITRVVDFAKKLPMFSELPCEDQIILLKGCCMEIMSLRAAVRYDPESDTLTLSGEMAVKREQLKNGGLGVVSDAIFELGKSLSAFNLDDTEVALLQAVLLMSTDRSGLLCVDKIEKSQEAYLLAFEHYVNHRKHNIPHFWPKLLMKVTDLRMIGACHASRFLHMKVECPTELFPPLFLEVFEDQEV
T2 sequence 2: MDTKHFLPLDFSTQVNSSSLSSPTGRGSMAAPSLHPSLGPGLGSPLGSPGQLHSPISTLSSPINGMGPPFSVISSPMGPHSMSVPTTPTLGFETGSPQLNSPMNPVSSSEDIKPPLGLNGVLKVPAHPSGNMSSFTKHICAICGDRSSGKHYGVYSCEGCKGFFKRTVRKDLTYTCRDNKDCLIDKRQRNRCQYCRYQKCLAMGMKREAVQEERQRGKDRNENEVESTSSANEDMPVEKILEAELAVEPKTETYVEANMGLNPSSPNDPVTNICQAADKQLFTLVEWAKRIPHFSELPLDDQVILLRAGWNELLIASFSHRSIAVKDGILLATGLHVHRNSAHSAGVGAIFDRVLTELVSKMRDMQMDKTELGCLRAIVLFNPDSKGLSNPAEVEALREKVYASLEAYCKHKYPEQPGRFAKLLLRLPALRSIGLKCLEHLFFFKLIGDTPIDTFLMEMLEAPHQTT

[1] = biological target: T3, TRα/RXRα + GST-RAP250 (818-931) complex (Homo sapiens (TRα) / Rattus norvegicus …, UniProt P10827-2;Q05343;Q9JL19 P10827-2:1-410,Q05343:1-467,Q9JL19:818-931); test: EMSA; weak supershift without ligand, pronounced with T3 and/or 9-cis RA; settings: tags: GST-RAP250 purified from E. coli; label: 32P (dCTP)
T3 chain 1: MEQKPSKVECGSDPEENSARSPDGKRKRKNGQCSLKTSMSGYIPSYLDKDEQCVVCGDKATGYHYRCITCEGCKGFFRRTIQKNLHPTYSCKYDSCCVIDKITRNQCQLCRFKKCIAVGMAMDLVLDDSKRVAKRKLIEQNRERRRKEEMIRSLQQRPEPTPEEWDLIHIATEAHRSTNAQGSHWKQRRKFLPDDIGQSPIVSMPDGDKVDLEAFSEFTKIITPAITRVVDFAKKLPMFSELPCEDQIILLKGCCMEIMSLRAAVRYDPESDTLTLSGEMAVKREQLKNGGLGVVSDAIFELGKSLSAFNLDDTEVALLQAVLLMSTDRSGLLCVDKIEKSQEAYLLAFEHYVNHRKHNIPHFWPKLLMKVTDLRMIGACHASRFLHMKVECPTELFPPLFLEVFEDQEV
T3 chain 2: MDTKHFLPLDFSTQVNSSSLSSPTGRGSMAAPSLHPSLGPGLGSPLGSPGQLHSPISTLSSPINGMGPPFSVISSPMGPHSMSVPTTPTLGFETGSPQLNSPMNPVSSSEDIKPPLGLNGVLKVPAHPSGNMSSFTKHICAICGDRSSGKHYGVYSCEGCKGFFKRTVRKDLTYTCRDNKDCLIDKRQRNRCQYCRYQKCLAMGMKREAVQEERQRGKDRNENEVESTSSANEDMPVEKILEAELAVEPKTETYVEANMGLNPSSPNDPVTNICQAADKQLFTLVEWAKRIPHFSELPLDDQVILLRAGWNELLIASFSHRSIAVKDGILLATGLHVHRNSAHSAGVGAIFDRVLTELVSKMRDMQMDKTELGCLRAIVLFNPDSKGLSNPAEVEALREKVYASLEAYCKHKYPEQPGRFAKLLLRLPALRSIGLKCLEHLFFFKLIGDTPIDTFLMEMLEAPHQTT
T3 chain 3: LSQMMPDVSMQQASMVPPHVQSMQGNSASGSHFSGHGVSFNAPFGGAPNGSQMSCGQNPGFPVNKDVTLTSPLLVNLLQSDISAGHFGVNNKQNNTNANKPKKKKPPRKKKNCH

Measured: binding result

B1: DR4-TRE (dsDNA)
DNA 1: TCGATCAGGTCATTTCAGGTCAGAG
DNA 2: CTCTGACCTGAAATGACCTGATCGA
binds: all assays above

Source: US20020151477, “Nuclear receptor coactivator” (published 2002)
